Measured values reported in PMC3344845, “Structure of Bradavidin – C-Terminal Residues Act as Intrinsic Ligands” (PLoS ONE, 2012).
pKd: −log10 of the molar value.

Tests used:
[1] = target: core-bradavidin (Bradyrhizobium japonicum); experiment: ITC; core-bradavidin in the cell, ligand (Brad-tag or Brad-tag–EGFP) in the syringe, 15°C, 50 mM sodium phosphate pH 7.0, 100 mM NaCl; n is the stoichiometry per subunit
[2] = target: core-bradavidin (Bradyrhizobium japonicum); experiment: ITC; core-bradavidin in the cell, Brad-tag–EGFP in the syringe, 25°C, 50 mM sodium phosphate pH 7.0, 100 mM NaCl; n is the stoichiometry per subunit
[3] = target: Brad-tag–EGFP–His-tag fusion protein (Bradyrhizobium japonicum); experiment: BLI; Octet RED384; Brad-tag–EGFP–His-tag (0.03 mg/ml, 700 s) held on anti-Penta-HIS biosensors; higher concentrations: core-bradavidin 0.5, wt bradavidin 1.2, avidin 1.8, streptavidin 1.7, rhizavidin 2.0 mg/ml for 200 s; controls with biotin (3.2 mM for core-bradavidin, 13 mM for avidin) and plain sensors; 30°C

pKd [1]	dH [1]	stoichiometry N [1]	pKd [2]	dH [2]	stoichiometry N [2]	shift (BLI response) [3]	Substance
5.55	-0.5 kcal mol^–1	0.68	5.51	-1 kcal mol^–1	0.68		Brad-tag–EGFP fusion protein (without His-tag)
						1.2 nm	core-bradavidin (domain or fragment)
